In publication doi:10.1101/2022.10.12.511968v1 (biorxiv, 2022):
One block for each molecule: values may come before it.

Tests used:
[1] = molecular target: T1, METTL7A (TMT1A1; N-GST-METTL7A) (Homo sapiens, UniProt Q9H8H3); experiment: TSL S-methylation, TMSL formation by LC-MS/MS, single time-point; type: biochemical
T1 sequence (Q9H8H3 1-244): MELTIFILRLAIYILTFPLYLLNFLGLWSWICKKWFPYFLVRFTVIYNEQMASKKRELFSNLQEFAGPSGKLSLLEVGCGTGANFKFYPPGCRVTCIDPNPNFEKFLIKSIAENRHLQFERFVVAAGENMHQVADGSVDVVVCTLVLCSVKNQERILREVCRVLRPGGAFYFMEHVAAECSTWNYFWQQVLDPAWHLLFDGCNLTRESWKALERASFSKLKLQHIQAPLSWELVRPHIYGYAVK

[2] = molecular target: T1, METTL7A (TMT1A1; N-GST-METTL7A); experiment: as above; type: biochemical; remark: listed apart in the source
purified protein [3] = substrate: C[C@]12CCC(=O)C=C1C[C@@H](S)[C@@H]1[C@@H]2CC[C@@]2(C)[C@H]1CC[C@@]21CCC(=O)O1; experiment: purified protein; conditions: 100 µM SAM, DMPG, pH 7.0, 37 °C
purified protein [4] = substrate: C[S+](CC[C@H](N)C(=O)O)C[C@H]1O[C@@H](n2cnc3c(N)ncnc32)[C@H](O)[C@@H]1O; experiment: purified protein; conditions: 250 µM TSL (saturating), DMPG, pH 7.0, 37 °C, varied: cofactor

Molecule: CC(N)c1cccc(Cl)c1Cl (stereo not drawn) [DCMB, 2,3-dichloro-α-methylbenzylamine]
IC50 [1]: 1.17 µM

Ki [2]: 53.9 µM
Molecule: Nc1ncnc2c1ncn2[C@@H]1O[C@H](CSCC[C@H](N)C(=O)O)[C@@H](O)[C@H]1O [SAH]

B1: METTL7B (TMT1B1; N-GST-METTL7B) (Homo sapiens) (protein)
chain: MDILVPLLQLLVLLLTLPLHLMALLGCWQPLCKSYFPYLMAVLTPKSNRKMESKKRELFSQIKGLTGASGKVALLELGCGTGANFQFYPPGCRVTCLDPNPHFEKFLTKSMAENRHLQYERFVVAPGEDMRQLADGSMDVVVCTLVLCSVQSPRKVLQEVRRVLRPGGVLFFWEHVAEPYGSWAFMWQQVFEPTWKHIGDGCCLTRETWKDLENAQFSEIQMERQPPPLKWLPVGPHIMGKAVK
Km (purified protein [3]): 32.5 µM

B2: METTL7A (TMT1A1; N-GST-METTL7A) (Homo sapiens) (protein)
chain: MELTIFILRLAIYILTFPLYLLNFLGLWSWICKKWFPYFLVRFTVIYNEQMASKKRELFSNLQEFAGPSGKLSLLEVGCGTGANFKFYPPGCRVTCIDPNPNFEKFLIKSIAENRHLQFERFVVAAGENMHQVADGSVDVVVCTLVLCSVKNQERILREVCRVLRPGGAFYFMEHVAAECSTWNYFWQQVLDPAWHLLFDGCNLTRESWKALERASFSKLKLQHIQAPLSWELVRPHIYGYAVK
Km (purified protein [4]): 53.73 µM
Km (purified protein [3]): 39.4 µM
